assay: soluble on expression in E. coli; label from the status in PepcDB or PDB records

Sequence	soluble on expression in E. coli
MGSDKIHHHHHHVSTSVTKRPLTLVLASPRGFCAGVDRAIHIVERALEKYGAPVYVRHEIVHNRFVVESLAQKGAVFVEELDEVPDEAAVVFSAHGVPKTVPAEADRRGLTSLDATCPLVTKVHREAELHHAMGRQIIMIGHAGHPEVIGTIGQVPDGTVLLVGTPEEAEKVAPKNASMLAYITQTTLSVDDAAAVTEVLQRRFPEIVGPKREDICYATTNRQAAVKTIAPKCEALMVIGSPNSSNSSRLVEVAARAGCARSVLVQRAAEVDWSLLDGVDRLGITAGASAPEILVEEVVAAARERFDVTIEEIRVTTETVTFKLPQALSE	not soluble
MGSDKIHHHHHHMTDYFSYLGLQPSREELIQRFGLELDKLMTLDLNLTGRPSYLYSRERNGSGEASSTAFAQLLLDSLASKDVSILVTGWPVRSSIDVSIGEADGPIGAAAIARALHMTTGAVSLAMAPAPLAAQVAAAFRSAGATIIDFDAFERLSKGNERLFGVAIVGLDVDCDLSNYFAELLQNVKPKTVIAIEHYGFSAEGKPYHGTGNVVEPGTALTHPLFDQAMAEGLICGSCVDNPNEVGTSRLHDAGVKHPPMRNDFANLLVGSSANSAAFALCAALAGLSATPTAAFPGSLDEAGIAATLAHGAIDPFSGTADPSFGVDTIESPYHAWIADLMGRLAKGYCVAAATERHL	not soluble
SSMTSRYKRSIESATNVATELSKGNYDARTYGGYIRRSDKLGHAMNSLAIDLMEMTRTQEMQRDRLLTVIENIGSGLIMIDGRGFINLVNRSYAKQFHINPNHMLRRLYHDAFEHEEVIQLVEDIFMTETKKCKLLRLPIKIERRYFEVDGVPIMGPDDEWKGIVLVFHDMTETKKLEQMRKDFVANVSHELKTPITSIKGFTETLLDGAMEDKEALSEFLSIILKESERLQSLVQDLLDLSKIEQQNFTLSIETFEPAKMLGEIETLLKHKADEKGISLHLNVPKDPQYVSGDPYRLKQVFLNLVNNALTYTPEGGSVAINVKPREKDIQIEVADSGIGIQKEEIPRIFERFYRVDKDRSRNSGGTGLGLAIVKHLIEAHEGKIDVTSELGRGTVFTVTLKRAAEKSA	not soluble
QPPQFKLDPRLARLLGIHTQTRPVIIQALWQYIKTHKLQDPHEREFVLCDKYLQQIFESQRMKFSEIPQRLHALLMPPEP	soluble
RQEQRRTDHELREQLHFRQALIDAIPAPIYFMDTTGIFLGCNKAFEAFSGHTQDEIVGKTIYDLMPPSLAKHTDSADRELFEHGGIQIYESVISFADGALHDVIFYKATFTTTEKNIGGLVGTILDIT	not soluble
MSLTTGAAVAFVDTLHDAAVRDLGWLLASPSMLTAVPGAPLARPWPDATGQAAVEAWLAALDAQPGPLHRALDGFRPTRLGRYAECLLEYFLTHGPSLRLVAANLPLRSNGRTLGEVDFLVDTPDGRRLHWEMAVKCYLCAPVRDGASLADFVGPNLVDRFDRKRSRLLDHQLRMGEHDGFARLGYGAPADAQMFIKGWLFHPYGAPVPPVSVEIAPDHPRGFWLTHGQWPAWAAAQRDGAAWSVLPRLAWLAPRRAVAGAGVEPEPLASALELPAVLATRQTPDMIAIHEKGGDGTWRETARGFVVPDDWPARAQAFAAQDHEGHHHHHH	soluble
MSGRSVRAETRSRAKDDIKKVMAATERVRRWEKKWVTVGDTSLRIFKWVPVTETKQIYKPKGAGPAVRELKGFPTDVVLENARSVLLDFQDDNSNQSFLSDAYQSNTKVDSSSNSSPQHVSEAVSPSHPPYYRTEDSQPPTLGQESMEAEREASTTSSEVTDEPPTLIKEDVLSLSTQEEEEAIGAPPLKRVCTEHNSTVS	not soluble
MKVLGLIVEYNPFHNGHLYHLEESKKISGADFVVCVMSGNFIQRGEPAIVNKWARTKMALSAGADLVIELPLSCAMASAEYFASGAVRILNDIGIVDYICFGSEHGDVKTLDYIAQILVEEPESYKSFLKEELDNGLSYPAARESALKKYTAHSINIPQIISSSNNILGIEYLKALRRIKSSIIPLTIKRINNDYNTENITGSISSASSIRKYISTSNSTSFDDVLAMTMPKTSVDILFEEFSAGRGPVFKEDFYPVVTSLIRKMTPEQIRNFAYVSEGLENRIKSAADTAGTYEELVESICTRRYTKTRVQRILMGILMGVTSKDLDMLSRFDSPQYARILGFNSKGKQLLSQIKKKSSIPLVLKLSDFIKSCDPVLKRKLELEILATDLYVMCYKNPAFRKAGQEFTQNIIIM	soluble
GAMAQKNEDECAVCRDGGELICCDGCPRAFHLACLSPPLREIPSGTWRCSSCLQATVQEVQPRAEE	soluble
MVINGLDILLQNPEVLRHRRVGLIANQTSVSMQLEYSWMLLKRAGVELTRIFSPEHGLFAIEQDQIAVGHQPDIGCEIVSLYGDSEHSLAPARELLDGLDLVLFDIQDVGSRYYTYVNTLALFMKAAEGLDIEIMVLDRPNPLGGSLIEGPQLDPAFHSFVGVMPLPVRHGLTAGEIAHFYRNYKKLDLNLNVIPMQGWSRQMLFPETCLPWVPPSPNMPSFEAAEVYPGMCLFEGLNVSEGRGTTTPFLLSGATFVDPEALAERLASMPLEGVVFRPTWFRPTFHKYAGEAIGGLYLHVTDHARFRPFATGVAMTCALYELYPEQLAFLDGVYEFRDDIPAFDLLAGSSTIRSMILDNRDTTAIIASWEKDEAEFAAIKPNFHLYNN	not soluble
MICDNCKTREAVILQPHTGRKLCKECFIEDIRKRVEMEARKQEIVNSNKILLAVSGGKDSLVLADTLSQFIHPSRLIAFNINEGIKGYNRNEYVKKLEEYLKDLGIELIKSGFKEEVGFSLDEMLEASLKKKLNVSACTFCGGFRRKLINEAGIKVAADYVATGHNLDDEVQTIVINLIRGDLLRLIRFGDKPLMVSSKFVMRVKPLRKIYEWETTMYAHLKGFEFQETECPYISQKPTLRAKVRDLLYKLEEKKPGTLLRILEQFDEISEKIKKEYRLTNELPNCVICGEPTTPGRMICKNCELLIRSGLMPQEYQKYLPIS	not soluble
MSLAQTSDWDSVVAQAKKEGSVTFNVWYLQPQWRSFVKDFEQKYDIKVRIPEGSIDGNMNKLLAETRREQGKIDVIALSIAQLPITMGAKSLAKVDDLPGYQDAYHQLQNVDTQGYAVAFWGNQTGFAYDPQQMGDRPLPQTMEELQRFIDANPKRFGYNDPNNGGAGEAFIQRIVTTLSGDFSSESDTVDPTVIKDWQKGWQWFASNNNNITRTASGADSLTRLNDGELMLTPAWEDHLSGLQKTGAITSRLKFYVPEFGMPGGGNIASIAANSPHPAASRVFLNWLIQADTQKALNEAFGSTPMNKQLNADVKQPDTPVQFYGKAYSMQMKKEFARQVMTREGHHHHHH	soluble
MGSDKIHHHHHHMSFDAMNTTLSLNTSAGSQALTVRDPWALVPSLGDLNAYIAAVNRLPMLTLEEEQSLGQRLRDEHDLEAAGRLVLSHLRLVVSVSRQYLGYGLPHGDLIQEGNVGLMKAVKRFDPSQGVRLVSYALHWIKAEIHEYVLRNWRMVKLATTKAQRKLFFNLRSMKQGFKGDATDSDLHRSTLTDAEIDIVASELKVKREEVIEMETRLSGGDVALDPQTDDGDESYAPIAYLADDRHEPTRVLDAQRRDALAGDGIGEALDVLDARSRRIVEERWLKVNDNGSGGMTLHELAAEYGVSAERIRQIEVAAMKKMRKALAAYA	not soluble
MAKARAIVITGNGTNCEMEAAHACRLGGFDETVIAHISDILTGEIRLDDFHFLNLTGGFLDGDDLGSAKAQANRFRYARVDDLEEHLIDQIIRFIDAGKLILGVCNGFQLMTKMGLLPAVDGAYLAQTATLTFNACGRFQDRWVYLKVDQASPSIYTKGVETGLYLPIRHGEGKFVVDSPATLAAIEAKHLAVFTYSDETYSAPTMEFPLNPNGSVNAIAAVCNESGRLMGMMPHPEAFLHRTNHPRWTREDLPEEGDGLVLFRNAADYAKANLLLEHHHHHH	not soluble
AGSDEVNRNECKTVVPLHTWVLISNFKLSYNILRRADGTFERDLGEYLDRRVPANARPLEGVSSFDHIIDQSVGLEVRIYRAAAEGDAEEGAAAVTRPILEFLTDAPAAEPFPVIIFFHGGSFVHSSASSTIYDSLCRRFVKLSKGVVVSVNYRRAPEHRYPCAYDDGWTALKWVMSQPFMRSGGDAQARVFLSGDSSGGNIAHHVAVRAADEGVKVCGNILLNAMFGGTERTESERRLDGKYFVTLQDRDWYWKAYLPEDADRDHPACNPFGPNGRRLGGLPFAKSLIIVSGLDLTCDRQLAYADALREDGHHVKVVQCENATVGFYLLPNTVHYHEVMEEISDFLNANLYYGSHHHHHHHHHH	soluble
MTTELETSFADLGLSAPILSALTDLGYEKPSPIQLECIPHLLNGRDVLGMAQTGSGKTAAFGLPLLHNIKADLKSPQVLVLAPTRELAVQVAEALSSFSKHINGVNVVALYGGQRYDVQLRALRQGPQVVVGTPGRLLDHLKRGTLNLSNLSGLVLDEADEMLRMGFIEDVETIMAQIPAEHQTALFSATMPEAIRRITRRFMKEPQEVRIQSSVTTRPDISQSYWRVGGGYRKNEALVRFLEAEDFDAAIIFVRTKNATLEVAEALERSGYNSAALNGDMNQALREQTLERLKDGRLDILIATDVAARGLDVERISLVVNYDIPMDSESYVHRIGRTGRAGRAGRALLFVENRERRLLQNIERTMKLTIPEVELPNADLLSERRLAKFAAKVSQQLESSDLDMYRALLAKLQPEEEFDIETLAAALLKMAQGERPLILPPEAPRRPQREFNSRDDRGNDRGSRDRGDSRRDNRSDSRSADSRDGGERPARRERRDVGEMELYRIEVGRDDGVEVRHIVGAIANEGDISSRYIGNIKLFASHSTIELPKGMPGEMLSHFTRTRILNKPLNMQLLGDAQPHERRERPAGGNGGERRGGGRPFSGERREGAGAPPRRSFSGDRAPTGGGERRGNRDGQRSAAPRRDDAAAPAAAAAAPARRRFGDA	not soluble
MAHHHHHHMGTLEAQTQGPGSMNIDAISIGSNPPEDVNVIIEVPVGGQPIKYEMDKKAGALIVDRFLYTPMTYPGNYGFVPHTLSEDGDPIDVLVCNTRPLIPGCVINVRPIGVLVMEDNSGKDEKIIAVPSPHLTRRYEKIHDYTDMPEITLKQIAHFFEHYKDLEPGKWVKIGDWGDEDYARKFIVEAIERAKGK	soluble
MSAEEQDTRSGGIQVIARAAELLRVLQAHPGGLSQAEIGERVGMARSTVSRILNALEDEGLVASRGARGPYRLGPEITRMATTVRLGVVTEMHPFLTELSRELDETVDLSILDGDRADVVDQVVPPQRLRAVSAVGESFPLYCCANGKALLAALPPERQARALPSRLAPLTANTITDRAALRDELNRIRVDGVAYDREEQTEGICAVGAVLRGVSVELVAVSVPVPAQRFYGREAELAGALLAWVSKVDAWFNGTEDRK	soluble
MGSDKIHHHHHHMASHLTDGVIHATTRAASLHWCIAQATKTDGALNGDGYLLKRDEDTLLFALADGVGSGQLAHDASSACLRILAASDDMDLPSLFETCHTQLTSTRGAALGLVKFFLGQGFLEWAAVGDIEGCIYPTEPTSSRTISMMQRGGTLGHYFTGITPQQHAWPPTSMLALCTDGVSRKFRERHPNDQAPREFADSCFNDFGRDNDDRTLATFSWTQEGT	not soluble
GSMEPPNLYPVKLYVYDLSKGLARRLSPIMLGKQLEGIWHTSIVVHKDEFFFGSGGISSCPPGGTLLGPPDSVVDVGSTEVTEEIFLEYLSSLGESLFRGEAYNLFEHNCNTFSNEVAQFLTGRKIPSYITDLPSEVLSTPFGQALRPLLDSIQIQPPGGSSVGRPNGQS	soluble
MTIATIDIGGTGIKFASLTPDGKILDKTSISTPENLEDLLAWLDQRLSEQDYSGIAMSVPGAVNQETGVIDGFSAVPYIHGFSWYEALSSYQLPVHLENDANCVGLSELLAHPELENAACVVIGTGIGGAMIINGRLHRGRHGLGGEFGYMTTLAPAEKLNNWSQLASTGNMVRYVIEKSGHTDWDGRKIYQEAAAGNILCQEAIERMNRNLAQGLLNIQYLIDPGVISLGGSISQNPDFIQGVKKAVEDFVDAYEEYTVAPVIQACTYHADANLYGALVNWLQEEKQW	soluble
